PMC5043372 (2016)
Non-standard residues stand in square brackets, D forms with d. No end group written: not given here. pY = N[C@@H](Cc1ccc(OP(=O)(O)O)cc1)C(=O)O

T1: SH2 domain of Monosiga brevicollis crka1 (Monosiga brevicollis, UniProt A0A1C9VNP8 1-97)
T1 chain: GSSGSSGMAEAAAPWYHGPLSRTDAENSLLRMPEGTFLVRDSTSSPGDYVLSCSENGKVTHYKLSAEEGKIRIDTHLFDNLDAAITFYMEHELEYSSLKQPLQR


How the values were obtained:
Assay in all cases: ITC
SH2 domain of human CRK [1] = molecular target: T2, SH2 domain of human CRK (human, UniProt P46108 13-118)
T2 sequence (P46108 other isoform, or with tags, fused parts or gaps): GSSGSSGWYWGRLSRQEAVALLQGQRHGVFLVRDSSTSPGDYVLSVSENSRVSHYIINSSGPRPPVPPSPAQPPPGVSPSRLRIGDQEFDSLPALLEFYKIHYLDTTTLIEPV

SH2 domain of human CRKL [2] = molecular target: T3, SH2 domain of human CRKL (human, UniProt P46109 14-102)
T3 sequence (P46109 other isoform, or with tags, fused parts or gaps): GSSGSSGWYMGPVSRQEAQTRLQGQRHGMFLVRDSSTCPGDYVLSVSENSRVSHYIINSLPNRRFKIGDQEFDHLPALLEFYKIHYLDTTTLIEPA

SH2 domain of human CRKL [3] = molecular target: T3, SH2 domain of human CRKL; remark: listed apart in the source
[4] = molecular target: T1, SH2 domain of Monosiga brevicollis crka1
[5] = molecular target: T1, SH2 domain of Monosiga brevicollis crka1
SH2 domain of human CRK [6] = molecular target: T2, SH2 domain of human CRK; remark: listed apart in the source

| Binder | Kd (SH2 domain of human CRK [1]) | also measured |
| --- | --- | --- |
| SR[pY]QQPFE [PLCG1 Y1253 peptide SR-pYQQP-FE] | 6.45 µM | Kd (SH2 domain of human CRKL [2]): 9.8 µM |
| EV[pY]DTPPM [p130Cas (Bcar1) Y271 peptide EV-pYDTP-PM] | 1.07 µM |  |
| PH[pY]FVLTS [PLCG1 Y509 peptide PH-pYFVL-TS] | 8.93 µM |  |
| DL[pY]QVPPG [p130Cas (Bcar1) Y169 peptide DL-pYQVP-PG] | 2.17 µM |  |
| AE[pY]QVPTS [Dok7 Y396] |  | Ka (SH2 domain of human CRKL [3]): 1.53e+06 M⁻¹; Ka (SH2 domain of human CRK [6]): 2.34e+06 M⁻¹; Ka [4]: 23300 M⁻¹ |
| DL[pY]QVPPG [Bcar1 Y169] |  | Ka (SH2 domain of human CRK [6]): 460000 M⁻¹ |
| SN[pY]MAPYD [PDGFRB Y771 peptide SN-pYMAP-YD] | 25.1 µM |  |
| AE[pY]QVPTS [Dok7 (Y396) peptide AE-pYQVP-TS] | 0.427 µM | Kd (SH2 domain of human CRKL [2]): 0.654 µM; Kd [5]: 42.9 µM |
| EM[pY]DVPRS [phosphopeptide EM-pYDVP-RS of S. rosetta PTSG_05573] |  | Kd [5]: 118 µM |
| SL[pY]DRPAS [PDGFRA Y762 peptide SL-pYDRP-AS] | 0.98 µM |  |
| GP[pY]AQPSV [CRK Y221 peptide GP-pYAQP-SV] | 10.2 µM |  |
| DV[pY]DVPPS [p130Cas (Bcar1) Y291 peptide DV-pYDVP-PS] | 0.455 µM | Kd (SH2 domain of human CRKL [2]): 1.06 µM |
| LN[pY]ENLPS [FRS2 Y349 peptide LN-pYENL-PS] |  | Kd [5]: 126 µM |
| SV[pY]ESPYS [ZAP70 Y315 peptide SV-pYESP-YS] | 4.44 µM |  |
| DM[pY]DVPRN [phosphopeptide DM-pYDVP-RN of S. rosetta PTSG_05573] |  | Kd [5]: 61.7 µM |
| QQ[pY]SSPGL [EPHB6 Y635 peptide QQ-pYSSP-GL] | 5.21 µM |  |
| PN[pY]MFPSQ [ROR1 Y789 peptide PN-pYMFP-SQ] | 8.85 µM |  |

Continued, in another order:

| Kd (SH2 domain of human CRK [1]) | Binder | also measured |
| --- | --- | --- |
| 0.649 µM | SV[pY]DVPPS [p130Cas (Bcar1) Y310 peptide SV-pYDVP-PS] |  |
| 4.83 µM | DL[pY]DVPPG [p130Cas (Bcar1) Y376 peptide DL-pYDVP-PG] |  |
| 0.0602 µM | HH[pY]DTPRS [phosphotyrosyl peptide from M. musculus Dok7 (Y406)] | Ka (SH2 domain of human CRKL [3]): 9.16e+06 M⁻¹; Ka [4]: 116000 M⁻¹; Kd (SH2 domain of human CRKL [2]): 0.109 µM; Kd [5]: 8.62 µM |
| 2.48 µM | HV[pY]SFPNK [paxillin (PXN) Y118 peptide HV-pYSFP-NK] |  |
| 0.127 µM | DE[pY]DTPRH [phosphotyrosyl peptide from M. musculus Bcar1 (p130Cas, Y238)] | Kd (SH2 domain of human CRKL [2]): 0.368 µM; Kd [5]: 10.1 µM |
